Experimental data from paper PMC8680157.

Assays:
[1] = molecular target: fluorescently labelled nucleosome core particle (NCP), non-ubiquitylated (human) (UniProt P68431); test: fluorescence polarisation
[2] = molecular target: fluorescently labelled nucleosome core particle ubiquitylated at H2A K13 and K15 (human) (UniProt P68431); test: fluorescence polarisation

GST-tagged BARD1 (ARD–BRCT), residues 415–777, wild type, sequence (Q99728 415-777): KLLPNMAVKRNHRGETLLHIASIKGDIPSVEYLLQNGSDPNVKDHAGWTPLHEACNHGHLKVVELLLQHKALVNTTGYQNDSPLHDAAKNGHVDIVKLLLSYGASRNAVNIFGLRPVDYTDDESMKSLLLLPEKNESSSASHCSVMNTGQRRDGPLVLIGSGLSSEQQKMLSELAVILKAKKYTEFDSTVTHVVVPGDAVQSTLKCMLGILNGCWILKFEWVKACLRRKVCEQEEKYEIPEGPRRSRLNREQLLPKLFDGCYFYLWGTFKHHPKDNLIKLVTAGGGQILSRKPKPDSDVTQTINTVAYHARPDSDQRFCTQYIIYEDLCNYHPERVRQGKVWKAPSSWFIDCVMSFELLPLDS

Substance	Kd [1] [nM]	Kd [2] [nM]
BRCA1^R–BARD1^Long, BRCA1 (residues 1–100)–BARD1 (residues 26–777) (from UniProt P38398 1-100; Q99728 26-777) (enzyme)	60	20
GST-tagged BARD1 (ARD–BRCT), residues 415–777, wild type (from UniProt Q99728 415-777) (domain or fragment)		200
BRCA1^R–BARD1^R, fusion of BRCA1 (residues 1–100) and BARD1 (residues 26–122) (from UniProt P38398 1-100; Q99728 26-122) (enzyme)	8000	
